Paper doi:10.1101/568618 (bioRxiv, 2019)
Residue numbers refer to the chain shown, from its start.

B1: full-length HY5 protein (natural protein)
chain: MQEQATSSLAASSLPSSSERSSSSAPHLEIKEGIESDEEIRRVPEFGGEAVGKETSGRESGSATGQERTQATVGESQRKRGRTPAEKENKRLKRLLRNRVSAQQARERKKAYLSELENRVKDLENKNSELEERLSTLQNENQMLRHILKNTTGNKRGGGGGSNADASL
B2: Arabidopsis COP1^349-675 WD40 domain (domain or fragment)
chain: TFTRYSRLRVIAEIRHGDIFHSANIVSSIEFDRDDELFATAGVSRCIKVFDFSSVVNEPADMQCPIVEMSTRSKLSCLSWNKHEKNHIASSDYEGIVTVWDVTTRQSLMEYEEHEKRAWSVDFSRTEPSMLVSGSDDCKVKVWCTRQEASVINIDMKANICCVKYNPGSSNYIAVGSADHHIHYYDLRNISQPLHVFSGHKKAVSYVKFLSNNELASASTDSTLRLWDVKDNLPVRTFRGHTNEKNFVGLTVNSEYLACGSETNEVYVYHKEITRPVTSHRFGSPDMDDAEEEAGSYFISAVCWKSDSPTMLTANSQGTIKVLVLAA
B3: COP1^(349-675, Lys422Ala) WD40 domain (domain or fragment)
chain: B2 chain with K74A
B4: recombinant light-activated full-length CRY2 (natural protein)
chain: MKMDKKTIVWFRRDLRIEDNPALAAAAHEGSVFPVFIWCPEEEGQFYPGRASRWWMKQSLAHLSQSLKALGSDLTLIKTHNTISAILDCIRVTGATKVVFNHLYDPVSLVRDHTVKEKLVERGISVQSYNGDLLYEPWEIYCEKGKPFTSFNSYWKKCLDMSIESVMLPPPWRLMPITAAAEAIWACSIEELGLENEAEKPSNALLTRAWSPGWSNADKLLNEFIEKQLIDYAKNSKKVVGNSTSLLSPYLHFGEISVRHVFQCARMKQIIWARDKNSEGEESADLFLRGIGLREYSRYICFNFPFTHEQSLLSHLRFFPWDADVDKFKAWRQGRTGYPLVDAGMRELWATGWMHNRIRVIVSSFAVKFLLLPWKWGMKYFWDTLLDADLECDILGWQYISGSIPDGHELDRLDNPALQGAKYDPEGEYIRQWLPELARLPTEWIHHPWDAPLTVLKASGVELGTNYAKPIVDIDTARELLAKAISRTREAQIMIGAAPDEIVADSFEALGANTIKEPGLCPSVSSNDQQVPSAVRYNGSKRVKPEEEEERDMKKSRGFDERELFSTAESSSSSSVFFVSQSCSLASEGKNLEGIQDSSDQITTSLGKNGCK
B5: CRY2^NC80 (CRY2^486-565) (domain or fragment)
chain: SRTREAQIMIGAAPDEIVADSFEALGANTIKEPGLCPSVSSNDQQVPSAVRYNGSKRVKPEEEEERDMKKSRGFDERELF

Experiments:
[1] = target: UVR8^HY5C44 chimera (recombinant) (Arabidopsis | not stated); assay: SEC
[2] = target: B3; assay: crystal structure
[3] = target: B2; assay: ITC
[4] = target: B2; assay: crystal structure
[5] = target: B3; assay: ITC
[6] = target: B2; assay: grating-coupled interferometry
full-length UVR8 = target: T1, full-length UVR8 (Arabidopsis, UniProt Q9FN03 1-440); assay: grating-coupled interferometry
T1 sequence: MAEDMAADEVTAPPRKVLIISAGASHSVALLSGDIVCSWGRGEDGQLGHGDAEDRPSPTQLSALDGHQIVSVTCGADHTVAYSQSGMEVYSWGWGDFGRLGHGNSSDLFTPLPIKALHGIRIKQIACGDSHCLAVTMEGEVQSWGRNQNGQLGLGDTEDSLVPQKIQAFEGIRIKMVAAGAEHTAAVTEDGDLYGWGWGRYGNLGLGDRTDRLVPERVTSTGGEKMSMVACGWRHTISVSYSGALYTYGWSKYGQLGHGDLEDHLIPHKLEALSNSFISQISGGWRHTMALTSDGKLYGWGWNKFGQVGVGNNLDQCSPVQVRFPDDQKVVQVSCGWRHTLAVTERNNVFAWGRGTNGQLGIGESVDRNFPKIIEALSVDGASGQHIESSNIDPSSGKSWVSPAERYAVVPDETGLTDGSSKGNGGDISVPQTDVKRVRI

[7] = target: T2, UVR8^12-381 (UVR8 β-propeller core) (Arabidopsis, UniProt Q9FN03 12-381); assay: grating-coupled interferometry
T2 sequence: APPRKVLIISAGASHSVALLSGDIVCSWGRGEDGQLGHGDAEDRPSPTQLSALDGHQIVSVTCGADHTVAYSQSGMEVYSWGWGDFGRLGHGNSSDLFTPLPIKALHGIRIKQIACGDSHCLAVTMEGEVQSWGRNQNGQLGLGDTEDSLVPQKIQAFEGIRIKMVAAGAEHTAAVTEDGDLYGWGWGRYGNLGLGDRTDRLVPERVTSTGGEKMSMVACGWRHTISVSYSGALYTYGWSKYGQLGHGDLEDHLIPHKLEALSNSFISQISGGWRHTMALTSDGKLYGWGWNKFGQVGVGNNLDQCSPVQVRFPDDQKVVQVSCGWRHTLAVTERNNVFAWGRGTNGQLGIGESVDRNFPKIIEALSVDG

[8] = target: B4; assay: grating-coupled interferometry

UVR8^HY5C44 chimera (recombinant)
stoichiometry N [1]: 2

EIRRVPEFGG [HY5^39-48 VP-peptide]
binding result [2]: binds | Kd [3]: ~20000 nM | fold stronger binding than UVR8^406-413 [3]: ~8 fold

GFGVVPSF [COL3^287-294 VP-peptide]
binding result [4]: binds | binding result [5]: binds

B1
Kd [6]: ~1000 nM

YLQIVPEI [HFR1^57-64 VP-peptide]
binding result [4]: binds

EHFIVPDL [STO^240-247 VP-peptide]
binding result [4]: binds

RYAVVPDE [UVR8^406-413 VP-peptide]
fold increase in affinity over wild-type COP1 [5]: ~10 fold | binding result [3]: binds

B2
Kd (full-length UVR8): ~1000 nM | Kd [7]: ~500 nM | binding result [8]: binds

B3
binding result (full-length UVR8): binds

ELLMVPDM [HYH^27-34 VP-peptide]
binding result [4]: binds

B4
fold increase in affinity over the isolated CRY2 VP-peptide [6]: ~200 fold

GYGIVPSF [CO^366-373 VP-peptide]
fold stronger binding than to wild-type COP1 [5]: ~4 fold | binding result [3]: binds

B5
binding result [6]: binds

EDQMVPSIT [CRY1^544-552 VP-peptide]
binding result [4]: binds | binding result [5]: binds

NDQQVPSAV [CRY2^527-535 VP-peptide]
fold reduced binding against wild-type COP1 [5]: ~30 fold | binding result [3]: binds
